According to paper PMC11405395 (The EMBO Journal, 2024):

T1: GINS tetramer (Sld5, Psf1, Psf2, Psf3), S. cerevisiae (S. cerevisiae, UniProt Q03406 1-294; Q12488 1-208; P40359 1-213; Q12146 1-194)
T1 construct: Sld5, GINS subunit, S. cerevisiae; Psf1, GINS subunit, S. cerevisiae; Psf2, GINS subunit, S. cerevisiae; Psf3, GINS subunit, S. cerevisiae; pJL005 with TwinStrep-Psf3; also called tetrameric GINS complex; source: purified as previously described (Yeeles et al, 2015; Lewis et al, 2022); copies: + + +
T1 sequence (looked up) 1: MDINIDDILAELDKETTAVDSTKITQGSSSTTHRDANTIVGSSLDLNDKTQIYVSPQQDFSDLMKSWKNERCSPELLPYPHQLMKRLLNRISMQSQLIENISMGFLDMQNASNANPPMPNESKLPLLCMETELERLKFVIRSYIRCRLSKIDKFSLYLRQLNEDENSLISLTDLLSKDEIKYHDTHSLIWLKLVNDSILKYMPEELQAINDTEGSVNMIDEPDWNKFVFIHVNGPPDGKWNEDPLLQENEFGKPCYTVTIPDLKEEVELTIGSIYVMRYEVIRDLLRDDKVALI
T1 sequence (looked up) 2: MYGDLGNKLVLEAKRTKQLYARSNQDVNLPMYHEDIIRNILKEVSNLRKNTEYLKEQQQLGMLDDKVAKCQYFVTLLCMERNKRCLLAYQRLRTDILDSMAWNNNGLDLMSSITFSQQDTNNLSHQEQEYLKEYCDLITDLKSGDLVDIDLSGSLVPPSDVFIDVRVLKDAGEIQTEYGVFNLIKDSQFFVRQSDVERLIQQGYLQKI
T1 sequence (looked up) 3: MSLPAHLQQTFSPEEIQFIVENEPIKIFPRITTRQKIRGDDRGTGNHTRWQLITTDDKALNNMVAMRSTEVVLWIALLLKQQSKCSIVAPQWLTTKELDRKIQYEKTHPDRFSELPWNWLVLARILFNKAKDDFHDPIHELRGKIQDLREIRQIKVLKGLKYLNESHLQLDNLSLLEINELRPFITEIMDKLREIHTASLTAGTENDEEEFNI
T1 sequence (looked up) 4: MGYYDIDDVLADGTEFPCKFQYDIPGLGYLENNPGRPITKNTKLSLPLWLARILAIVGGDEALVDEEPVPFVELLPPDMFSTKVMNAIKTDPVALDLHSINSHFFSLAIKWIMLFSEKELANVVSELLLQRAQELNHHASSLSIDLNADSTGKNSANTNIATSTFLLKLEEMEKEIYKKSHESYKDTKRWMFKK


Legend:
Conditions in all cases: both partners purified
[1] = molecular target: T1, GINS tetramer (Sld5, Psf1, Psf2, Psf3), …; assay: co-IP; purified proteins mixed: 10 nM FLAG-Rrm3 with 15 nM GINS, 10 min on ice; anti-FLAG M2 magnetic beads; 25 mM Hepes-KOH pH 7.6, 200 mM KOAc, 0.02% NP-40-S, 0.1 mg/mL BSA, 1 mM DTT, 10 mM Mg(OAc)2; immunoblotting
[2] = molecular target: T2, DNA polymerase ε (Pol2, Dpb2, Dpb3, Dpb4), S. cerevisiae (S. cerevisiae, UniProt P21951 1-2222; P24482 1-689; P27344 1-201; Q04603 1-196); assay: co-IP; purified proteins mixed: 10 nM FLAG-Rrm3 with 15 nM Pol ε, 10 min on ice; anti-FLAG M2 magnetic beads; 25 mM Hepes-KOH pH 7.6, 400 mM KOAc, 0.02% NP-40-S, 0.1 mg/mL BSA, 1 mM DTT, 10 mM Mg(OAc)2; immunoblotting
T2 construct: Pol2, catalytic subunit of DNA polymerase ε, S. cerevisiae; Dpb2, second largest subunit of DNA polymerase ε, S. cerevisiae; Dpb3, subunit of DNA polymerase ε, S. cerevisiae; Dpb4, subunit of DNA polymerase ε, S. cerevisiae (DPB4-TEV-CBP); also called Polε; Pol ε; source: S. cerevisiae strain yAJ2, purified as previously described (Yeeles et al, 2015); copies: + + +
T2 sequence (P21951 whole entry, chain 1 of 4): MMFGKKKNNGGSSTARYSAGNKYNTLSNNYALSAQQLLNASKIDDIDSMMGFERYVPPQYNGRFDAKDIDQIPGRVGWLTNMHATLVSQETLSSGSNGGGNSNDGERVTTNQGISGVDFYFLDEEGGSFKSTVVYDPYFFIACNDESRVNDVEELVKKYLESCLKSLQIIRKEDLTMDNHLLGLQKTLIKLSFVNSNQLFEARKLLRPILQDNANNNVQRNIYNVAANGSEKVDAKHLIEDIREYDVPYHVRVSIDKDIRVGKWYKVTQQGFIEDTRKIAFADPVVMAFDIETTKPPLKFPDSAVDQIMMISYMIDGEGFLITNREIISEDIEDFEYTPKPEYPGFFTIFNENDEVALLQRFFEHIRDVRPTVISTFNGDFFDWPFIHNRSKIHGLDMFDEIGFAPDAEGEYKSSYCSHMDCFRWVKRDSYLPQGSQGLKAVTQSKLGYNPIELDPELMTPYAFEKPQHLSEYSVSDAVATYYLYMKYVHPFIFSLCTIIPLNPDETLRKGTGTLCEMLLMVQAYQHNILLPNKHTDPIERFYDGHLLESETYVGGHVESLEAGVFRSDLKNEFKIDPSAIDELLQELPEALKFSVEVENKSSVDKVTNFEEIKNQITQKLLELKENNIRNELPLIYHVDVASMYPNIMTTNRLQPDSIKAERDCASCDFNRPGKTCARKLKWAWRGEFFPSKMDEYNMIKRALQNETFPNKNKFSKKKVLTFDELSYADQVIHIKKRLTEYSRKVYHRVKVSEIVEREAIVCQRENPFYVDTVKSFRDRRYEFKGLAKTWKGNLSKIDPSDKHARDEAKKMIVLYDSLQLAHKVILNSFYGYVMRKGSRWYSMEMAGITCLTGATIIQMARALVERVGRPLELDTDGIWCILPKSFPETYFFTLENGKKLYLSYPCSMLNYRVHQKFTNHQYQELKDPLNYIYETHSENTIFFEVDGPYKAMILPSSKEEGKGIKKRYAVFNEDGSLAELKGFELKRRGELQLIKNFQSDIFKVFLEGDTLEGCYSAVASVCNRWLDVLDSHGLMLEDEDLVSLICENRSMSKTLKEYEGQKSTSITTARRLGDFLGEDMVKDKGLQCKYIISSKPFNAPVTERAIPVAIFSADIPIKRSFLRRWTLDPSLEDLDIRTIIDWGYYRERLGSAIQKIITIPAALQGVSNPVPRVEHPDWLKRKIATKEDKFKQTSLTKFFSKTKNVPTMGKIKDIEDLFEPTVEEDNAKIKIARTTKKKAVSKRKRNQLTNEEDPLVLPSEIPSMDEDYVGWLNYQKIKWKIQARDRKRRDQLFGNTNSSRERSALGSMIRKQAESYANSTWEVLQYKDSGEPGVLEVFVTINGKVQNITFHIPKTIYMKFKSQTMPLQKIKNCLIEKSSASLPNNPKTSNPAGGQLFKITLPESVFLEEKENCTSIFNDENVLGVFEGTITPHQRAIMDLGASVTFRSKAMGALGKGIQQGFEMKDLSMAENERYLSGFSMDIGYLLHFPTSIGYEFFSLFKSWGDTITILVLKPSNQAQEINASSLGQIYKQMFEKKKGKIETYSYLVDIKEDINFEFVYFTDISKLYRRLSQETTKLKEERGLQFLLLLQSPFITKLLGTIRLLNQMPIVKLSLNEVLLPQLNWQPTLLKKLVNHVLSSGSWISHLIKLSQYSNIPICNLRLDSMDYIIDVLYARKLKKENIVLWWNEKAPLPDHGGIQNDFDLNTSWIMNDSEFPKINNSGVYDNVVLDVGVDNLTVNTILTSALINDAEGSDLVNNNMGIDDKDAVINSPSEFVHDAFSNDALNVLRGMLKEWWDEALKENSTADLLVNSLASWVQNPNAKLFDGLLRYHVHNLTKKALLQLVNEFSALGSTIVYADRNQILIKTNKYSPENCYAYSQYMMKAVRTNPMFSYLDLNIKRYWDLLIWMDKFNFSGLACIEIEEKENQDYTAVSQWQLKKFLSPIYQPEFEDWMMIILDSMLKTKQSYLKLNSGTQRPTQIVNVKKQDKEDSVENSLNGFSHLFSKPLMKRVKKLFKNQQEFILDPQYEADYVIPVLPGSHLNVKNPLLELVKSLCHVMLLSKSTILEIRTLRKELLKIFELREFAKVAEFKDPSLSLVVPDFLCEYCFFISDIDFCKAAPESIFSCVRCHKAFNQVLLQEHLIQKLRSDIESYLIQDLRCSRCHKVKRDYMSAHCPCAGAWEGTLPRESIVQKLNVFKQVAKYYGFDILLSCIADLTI
T2 sequence (P24482 whole entry, chain 2 of 4): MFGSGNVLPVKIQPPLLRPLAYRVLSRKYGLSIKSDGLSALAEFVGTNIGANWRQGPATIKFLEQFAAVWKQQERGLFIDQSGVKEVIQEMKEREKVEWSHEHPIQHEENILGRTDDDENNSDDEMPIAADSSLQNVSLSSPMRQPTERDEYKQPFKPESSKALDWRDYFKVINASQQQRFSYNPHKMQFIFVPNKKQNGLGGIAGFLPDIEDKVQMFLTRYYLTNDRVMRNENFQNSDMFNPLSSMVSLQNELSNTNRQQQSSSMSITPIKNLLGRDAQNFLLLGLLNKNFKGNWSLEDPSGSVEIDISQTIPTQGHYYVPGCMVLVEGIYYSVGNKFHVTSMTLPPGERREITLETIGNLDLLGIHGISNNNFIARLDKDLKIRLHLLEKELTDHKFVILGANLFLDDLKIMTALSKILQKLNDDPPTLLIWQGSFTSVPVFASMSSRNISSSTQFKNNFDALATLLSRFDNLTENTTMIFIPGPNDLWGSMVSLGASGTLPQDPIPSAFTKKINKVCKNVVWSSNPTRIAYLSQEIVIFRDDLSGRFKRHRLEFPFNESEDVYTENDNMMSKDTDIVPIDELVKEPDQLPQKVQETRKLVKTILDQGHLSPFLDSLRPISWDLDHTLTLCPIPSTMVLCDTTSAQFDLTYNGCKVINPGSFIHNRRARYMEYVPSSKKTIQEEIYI
T2 sequence (P27344 whole entry, chain 3 of 4): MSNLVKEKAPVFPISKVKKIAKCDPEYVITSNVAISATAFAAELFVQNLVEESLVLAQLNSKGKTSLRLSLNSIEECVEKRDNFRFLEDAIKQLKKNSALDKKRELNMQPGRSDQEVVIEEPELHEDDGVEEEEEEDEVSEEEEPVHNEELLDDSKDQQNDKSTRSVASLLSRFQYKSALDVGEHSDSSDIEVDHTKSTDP
T2 sequence (Q04603 whole entry, chain 4 of 4): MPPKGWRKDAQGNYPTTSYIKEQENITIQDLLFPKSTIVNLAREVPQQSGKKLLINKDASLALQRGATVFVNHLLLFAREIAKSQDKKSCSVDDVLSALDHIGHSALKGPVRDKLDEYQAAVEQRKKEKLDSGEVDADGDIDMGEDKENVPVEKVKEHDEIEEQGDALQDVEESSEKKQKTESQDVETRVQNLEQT

[3] = molecular target: T3, CMGE (budding yeast CMG helicase, Cdc45-Mcm2-7-GINS, together with DNA polymerase ε) (S. cerevisiae, UniProt P29469 1-868; P24279 1-971; P30665 1-933; P29496 1-775; P53091 1-1017; P38132 …); assay: co-IP; purified proteins mixed: 1–10 nM Rrm3/Rrm3N-BacPif1/BacPif1 with 15 nM CMG and 30 nM Pol ε, 10 min on ice; anti-Sld5 beads, 30 min 4 °C; 25 mM Hepes-KOH pH 7.6, 400 mM KOAc, 0.02% NP-40-S, 0.1 mg/mL BSA, 1 mM DTT, 10 mM Mg(OAc)2; immunoblotting
T3 construct: Mcm2, S. cerevisiae, subunit of CMG; Mcm3, S. cerevisiae, subunit of CMG (CBP-TEV-MCM3); Mcm4, S. cerevisiae, subunit of CMG; Mcm5, S. cerevisiae, subunit of CMG; Mcm6, S. cerevisiae, subunit of CMG; Mcm7, S. cerevisiae, subunit of CMG; Cdc45, S. cerevisiae, subunit of CMG (CDC45iFLAG2, internal FLAG tag; detected by anti-FLAG immunoblotting); Sld5, S. cerevisiae, GINS subunit of CMG …

[4] = molecular target: T4, Homo sapiens CMG helicase (CDC45-MCM2-7-GINS) (human, UniProt P49736 1-904; P25205 1-808; P33991 1-863; P33992 1-734; Q14566 1-821; P33993 …); assay: co-IP; purified proteins mixed: 10 nM RTEL1-FLAG with 15 nM hsCMG, 10 min on ice; anti-FLAG M2 magnetic beads; 25 mM Hepes-KOH pH 7.6, 100 mM KOAc, 0.02% NP-40-S, 0.1 mg/mL BSA, 1 mM DTT, 10 mM Mg(OAc)2; immunoblotting
T4 construct: MCM2, human, subunit of CMG; MCM3, human, subunit of CMG; MCM4, human, subunit of CMG; MCM5, human, subunit of CMG; MCM6, human, subunit of CMG; MCM7, human, subunit of CMG; CDC45, human, subunit of CMG; SLD5 (GINS4), human, GINS subunit of CMG (PrA-3TEV-HsSld5; eluted from IgG Sepharose with TEV protease); PSF1 (GINS1), human, GINS subunit of CMG; PSF2 (GINS2), human, GINS subunit of CMG; PSF3 …

[5] = molecular target: T5, Homo sapiens DNA polymerase ε (POLE1, POLE2, POLE3, POLE4) (human, UniProt Q07864 1-2286; P56282 1-527; Q9NRF9 1-147; Q9NR33 1-117); assay: co-IP; purified proteins mixed: 10 nM RTEL1-FLAG with 15 nM hsPol ε, 10 min on ice; anti-FLAG M2 magnetic beads; 25 mM Hepes-KOH pH 7.6, 200 mM KOAc, 0.02% NP-40-S, 0.1 mg/mL BSA, 1 mM DTT, 10 mM Mg(OAc)2; immunoblotting
T5 construct: POLE1 (catalytic subunit of DNA polymerase ε), human; POLE2 (homologue of budding yeast Dpb2), human (PolE2_tev_2XFLAG; tag removed with TEV protease); POLE3, human; POLE4, human; The methods call the removed tag 3FLAG, the strain and plasmid 2XFLAG; also called hsPOL ε; POL ε; source: S. cerevisiae strain ySP061, purified (anti-FLAG M2 resin, TEV cleavage, MonoQ, Superdex 200); not shown: …

Binder	binding result [1]	binding result [2]	binding result [3]	binding result [4]	binding result [5]
Rrm3 (wild-type, FLAG-tagged) (enzyme, S. cerevisiae, UniProt P38766 1-723, looked up, Rrm3 Pif1-family 5'-3' DNA helicase, S. cerevisiae; helicase domain printed as residues 230-723; Gene codon optimised for expression; a TEV site lies between the 3FLAG tag and Rrm3; also called WT Rrm3; full-length Rrm3; source: S. cerevisiae strain yTDK9, purified (anti-FLAG M2 resin, HiTrap heparin); not shown: 3FLAG, N-terminal, kept) MFRSHASGNKKQWSKRSSNGSTPAASASGSHAYRQQTLSSFFMGCGKKSAAASKNSTTIIDLESGDEGNRNITAPPRPRLIRNNSSSLFSQSQGSFGDDDPDAEFKKLVDVPRLNSYKKSSRSLSMTSSLHKTASASTTQKTYHFDEDETLREVTSVKSNSRQLSFTSTINIEDSSMKLSTDSERPAKRSKPSMEFQGLKLTVPKKIKPLLRKTVSNMDSMNHRSASSPVVLTMEQERVVNLIVKKRTNVFYTGSAGTGKSVILQTIIRQLSSLYGKESIAITASTGLAAVTIGGSTLHKWSGIGIGNKTIDQLVKKIQSQKDLLAAWRYTKVLIIDEISMVDGNLLDKLEQIARRIRKNDDPFGGIQLVLTGDFFQLPPVAKKDEHNVVKFCFESEMWKRCIQKTILLTKVFRQQDNKLIDILNAIRYGELTVDIAKTIRNLNRDIDYADGIAPTELYATRREVELSNVKKLQSLPGDLYEFKAVDNAPERYQAILDSSLMVEKVVALKEDAQVMMLKNKPDVELVNGSLGKVLFFVTESLVVKMKEIYKIVDDEVVMDMRLVSRVIGNPLLKESKEFRQDLNARPLARLERLKILINYAVKISPHKEKFPYVRWTVGKNKYIHELMVPERFPIDIPRENVGLERTQIPLMLCWALSIHKAQGQTIQRLKVDLRRIFEAGQVYVALSRAVTMDTLQVLNFDPGKIRTNERVKDFYKRLETLK	binds	binds	binds		
Rrm3-2E (Rrm3 K118E, R122E) (enzyme, S. cerevisiae, UniProt P38766 1-723, looked up, Built in the wild-type expression plasmid pTDK15 (pOO8); also called 3FLAG-TEV-RRM3-2E; source: S. cerevisiae strain yOO4, purified (anti-FLAG M2 resin, HiTrap heparin); not shown: 3FLAG, N-terminal, kept) MFRSHASGNKKQWSKRSSNGSTPAASASGSHAYRQQTLSSFFMGCGKKSAAASKNSTTIIDLESGDEGNRNITAPPRPRLIRNNSSSLFSQSQGSFGDDDPDAEFKKLVDVPRLNSYEKSSESLSMTSSLHKTASASTTQKTYHFDEDETLREVTSVKSNSRQLSFTSTINIEDSSMKLSTDSERPAKRSKPSMEFQGLKLTVPKKIKPLLRKTVSNMDSMNHRSASSPVVLTMEQERVVNLIVKKRTNVFYTGSAGTGKSVILQTIIRQLSSLYGKESIAITASTGLAAVTIGGSTLHKWSGIGIGNKTIDQLVKKIQSQKDLLAAWRYTKVLIIDEISMVDGNLLDKLEQIARRIRKNDDPFGGIQLVLTGDFFQLPPVAKKDEHNVVKFCFESEMWKRCIQKTILLTKVFRQQDNKLIDILNAIRYGELTVDIAKTIRNLNRDIDYADGIAPTELYATRREVELSNVKKLQSLPGDLYEFKAVDNAPERYQAILDSSLMVEKVVALKEDAQVMMLKNKPDVELVNGSLGKVLFFVTESLVVKMKEIYKIVDDEVVMDMRLVSRVIGNPLLKESKEFRQDLNARPLARLERLKILINYAVKISPHKEKFPYVRWTVGKNKYIHELMVPERFPIDIPRENVGLERTQIPLMLCWALSIHKAQGQTIQRLKVDLRRIFEAGQVYVALSRAVTMDTLQVLNFDPGKIRTNERVKDFYKRLETLK		binds	binds		
RTEL1ΔE813-E821 (enzyme, human, UniProt Q9NZ71-1 1-1219, looked up, Plasmid pSP51; also called hsRTEL1ΔE813-E821; source: S. cerevisiae strain ySP075, purified (anti-FLAG M2 resin, HiLoad Superdex 200); not shown: 2XFLAG, C-terminal, kept) MPKIVLNGVTVDFPFQPYKCQQEYMTKVLECLQQKVNGILESPTGTGKTLCLLCTTLAWREHLRDGISARKIAERAQGELFPDRALSSWGNAAAAAGDPIACYTDIPKIIYASRTHSQLTQVINELRNTSYRPKVCVLGSREQLCIHPEVKKQESNHLQIHLCRKKVASRSCHFYNNVEEKSLEQELASPILDIEDLVKSGSKHRVCPYYLSRNLKQQADIIFMPYNYLLDAKSRRAHNIDLKGTVVIFDEAHNVEKMCEESASFDLTPHDLASGLDVIDQVLEEQTKAAQQGEPHPEFSADSPSPGLNMELEDIAKLKMILLRLEGAIDAVELPGDDSGVTKPGSYIFELFAEAQITFQTKGCILDSLDQIIQHLAGRAGVFTNTAGLQKLADIIQIVFSVDPSEGSPGSPAGLGALQSYKVHIHPDAGHRRTAQRSDAWSTTAARKRGKVLSYWCFSPGHSMHELVRQGVRSLILTSGTLAPVSSFALEMQIPFPVCLENPHIIDKHQIWVGVVPRGPDGAQLSSAFDRRFSEECLSSLGKALGNIARVVPYGLLIFFPSYPVMEKSLEFWRARDLARKMEALKPLFVEPRSKGSFSETISAYYARVAAPGSTGATFLAVCRGKASEGLDFSDTNGRGVIVTGLPYPPRMDPRVVLKMQFLDEMKGQGGAGGQFLSGQEWYRQQASRAVNQAIGRVIRHRQDYGAVFLCDHRFAFADARAQLPSWVRPHVRVYDNFGHVIRDVAQFFRVAERTMPAPAPRATAPSVRGEDAVSEAKSPGPFFSTRKAKSLDLHVPSLKQRSSGSPAAGDPQEPVPARQRPRGLLAALEHSEQRAGSPGEEQAHSCSTLSLLSEKRPAEEPRGGRKKIRLVSHPEEPVAGAQTDRAKLFMVAVKQELSQANFATFTQALQDYKGSDDFAALAACLGPLFAEDPKKHNLLQGFYQFVRPHHKQQFEEVCIQLTGRGCGYRPEHSIPRRQRAQPVLDPTGRTAPDPKLTVSTAAAQQLDPQEHLNQGRPHLSPRPPPTGDPGSQPQWGSGVPRAGKQGQHAVSAYLADARRALGSAGCSQLLAALTAYKQDDDLDKVLAVLAALTTAKPEDFPLLHRFSMFVRPHHKQRFSQTCTDLTGRPYPGMEPPGPQEERLAVPPVLTHRAPQPGPSRSEKTGKTQSKISSFLRQRPAGTVGAGGEDAGPSQSSGPPHGPAASEWGL				binds	binds
